This is an account of results in patent publication EP2057188B1.

The target in assay [1] is T1, human GIP receptor (human), P48546.
T1 chain: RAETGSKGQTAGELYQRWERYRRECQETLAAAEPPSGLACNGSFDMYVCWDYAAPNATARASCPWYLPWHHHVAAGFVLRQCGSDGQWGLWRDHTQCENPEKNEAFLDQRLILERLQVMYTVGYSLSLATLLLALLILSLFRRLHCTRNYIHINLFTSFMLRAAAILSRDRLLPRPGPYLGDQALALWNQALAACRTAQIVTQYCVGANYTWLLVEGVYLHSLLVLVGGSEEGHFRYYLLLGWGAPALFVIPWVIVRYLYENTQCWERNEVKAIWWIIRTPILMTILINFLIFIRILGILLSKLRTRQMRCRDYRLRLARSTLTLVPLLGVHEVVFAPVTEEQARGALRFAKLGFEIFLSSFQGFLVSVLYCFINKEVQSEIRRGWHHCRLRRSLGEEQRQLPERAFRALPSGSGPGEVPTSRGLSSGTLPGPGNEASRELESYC
The assay is described as follows: 125I-GIP displacement, HEK-GIPR.

Assay [2] addresses T2, GIP Receptor (Rattus norvegicus (Rat)), P43219.
T2 chain: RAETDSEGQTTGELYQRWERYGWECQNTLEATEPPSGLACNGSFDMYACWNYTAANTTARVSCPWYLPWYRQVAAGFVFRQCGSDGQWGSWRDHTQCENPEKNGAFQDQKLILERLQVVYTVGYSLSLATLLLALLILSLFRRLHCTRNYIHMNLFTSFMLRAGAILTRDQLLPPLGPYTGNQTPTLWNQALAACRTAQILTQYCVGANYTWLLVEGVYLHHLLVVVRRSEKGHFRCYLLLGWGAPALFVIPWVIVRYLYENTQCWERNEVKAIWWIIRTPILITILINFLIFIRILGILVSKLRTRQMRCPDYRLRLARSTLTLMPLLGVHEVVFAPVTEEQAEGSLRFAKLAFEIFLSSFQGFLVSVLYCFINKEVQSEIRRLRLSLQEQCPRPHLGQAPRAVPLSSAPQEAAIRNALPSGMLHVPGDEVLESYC
The assay is described as follows: cell-based or functional assay.

Assay [3] concerns the target T2, GIP Receptor (Rattus norvegicus (Rat)), …. The assay is described as follows: cell-based or functional assay.
For assay [4] the target is unchanged. The assay is described as follows: GIP RBA.
Assay [5] has the same target. The assay is described as follows: GIP RBA, RIN.
Assay [6] deals with T1, human GIP receptor (human), P48546. The assay is described as follows: 125I-GIP displacement, 10 nM analog, HEK-GIPR.
The target is the same in assay [7]. The assay is described as follows: 125I-GIP displacement, HEK-GIPR.

Substitutions are numbered along the chain they refer to. Values joined by “and” are separate entries in the source; they are usually repeats but may differ in a detail not shown here. Equal values may be shown once. Read-outs that look alike come from different tables or passages of the source.

B1: 0601GIP4178 (peptide)
peptide: YAEGTFISDYSIAMDKIHQQDFVNWLLAQKPSSGAPPPS
modifications: not checked
Regarding B1, in assay [1], the IC50 stood at 0.17 nM. The Cyclase in assay [2] worked out at 96; in assay [3], 36.2.

B2: 0601GIP4252 (peptide)
peptide: B1 peptide
modifications: not checked
B2 yielded an IC50 in assay [4] of 5.6 nM. The molecule also displayed a Cyclase in assay [3] of 154.

B3: 0601GIP4386 (peptide)
peptide: YSDGTFISDYSIAMDKIHQQDFVNWLLAQKPKKIRYS
modifications: not checked
In assay [5], B3 registered an IC50 of 156 nM. The GIPR Cyclase in assay [2] came to 56.

B4: 0601GIP4233 (peptide)
peptide: B3 peptide with S2A, D3E
modifications: not checked
Regarding B4, the concentration for half-maximal inhibition (IC50) is 0.21 nM in assay [1]; 0.12 nM and 0.41 nM in assay [7]. The molecule also showed a %Inh 10nM in assay [6] of 89%.
